Experimental data: paper PMC9269880 (Science Advances, 2022)

B1: 3XFLAG-Swi6 (natural protein, S. pombe, UniProt P40381 1-328, looked up)
chain: MKKGGVRSYRRSSTSKRSVIDDDSEPELPSMTKEAIASHKADSGSSDNEVESDHESKSSSKKLKENAKEEEGGEEEEEDEYVVEKVLKHRMARKGGGYEYLLKWEGYDDPSDNTWSSEADCSGCKQLIEAYWNEHGGRPEPSKRKRTARPKKPEAKEPSPKSRKTDEDKHDKDSNEKIEDVNEKTIKFADKSQEEFNENGPPSGQPNGHIESDNESKSPSQKESNESEDIQIAETPSNVTPKKKPSPEVPKLPDNRELTVKQVENYDSWEDLVSSIDTIERKDDGTLEIYLTWKNGAISHHPSTITNKKCPQKMLQFYESHLTFRENE

What was measured:
H3K9me3 mononucleosome = H3K9me3 mononucleosome (UniProt P68431); assay: native gel or EMSA
cross-linking = biological target: the molecule itself; assay: cross-linking

| Molecule | fold increase in H3K9me3 nucleosome binding specificity against WT Swi6 (H3K9me3 mononucleosome) | binding result (cross-linking) |
| --- | --- | --- |
| Swi6^2XCD-GST (recombinant, 6XHis tag cleaved) | 2 fold |  |
| B1 |  | binds |
